We go through one molecule from paper PMC2173397.

The experiment has as its target T1, Apaf-1 (human (endogenous in HeLa)), O14727.
T1 chain: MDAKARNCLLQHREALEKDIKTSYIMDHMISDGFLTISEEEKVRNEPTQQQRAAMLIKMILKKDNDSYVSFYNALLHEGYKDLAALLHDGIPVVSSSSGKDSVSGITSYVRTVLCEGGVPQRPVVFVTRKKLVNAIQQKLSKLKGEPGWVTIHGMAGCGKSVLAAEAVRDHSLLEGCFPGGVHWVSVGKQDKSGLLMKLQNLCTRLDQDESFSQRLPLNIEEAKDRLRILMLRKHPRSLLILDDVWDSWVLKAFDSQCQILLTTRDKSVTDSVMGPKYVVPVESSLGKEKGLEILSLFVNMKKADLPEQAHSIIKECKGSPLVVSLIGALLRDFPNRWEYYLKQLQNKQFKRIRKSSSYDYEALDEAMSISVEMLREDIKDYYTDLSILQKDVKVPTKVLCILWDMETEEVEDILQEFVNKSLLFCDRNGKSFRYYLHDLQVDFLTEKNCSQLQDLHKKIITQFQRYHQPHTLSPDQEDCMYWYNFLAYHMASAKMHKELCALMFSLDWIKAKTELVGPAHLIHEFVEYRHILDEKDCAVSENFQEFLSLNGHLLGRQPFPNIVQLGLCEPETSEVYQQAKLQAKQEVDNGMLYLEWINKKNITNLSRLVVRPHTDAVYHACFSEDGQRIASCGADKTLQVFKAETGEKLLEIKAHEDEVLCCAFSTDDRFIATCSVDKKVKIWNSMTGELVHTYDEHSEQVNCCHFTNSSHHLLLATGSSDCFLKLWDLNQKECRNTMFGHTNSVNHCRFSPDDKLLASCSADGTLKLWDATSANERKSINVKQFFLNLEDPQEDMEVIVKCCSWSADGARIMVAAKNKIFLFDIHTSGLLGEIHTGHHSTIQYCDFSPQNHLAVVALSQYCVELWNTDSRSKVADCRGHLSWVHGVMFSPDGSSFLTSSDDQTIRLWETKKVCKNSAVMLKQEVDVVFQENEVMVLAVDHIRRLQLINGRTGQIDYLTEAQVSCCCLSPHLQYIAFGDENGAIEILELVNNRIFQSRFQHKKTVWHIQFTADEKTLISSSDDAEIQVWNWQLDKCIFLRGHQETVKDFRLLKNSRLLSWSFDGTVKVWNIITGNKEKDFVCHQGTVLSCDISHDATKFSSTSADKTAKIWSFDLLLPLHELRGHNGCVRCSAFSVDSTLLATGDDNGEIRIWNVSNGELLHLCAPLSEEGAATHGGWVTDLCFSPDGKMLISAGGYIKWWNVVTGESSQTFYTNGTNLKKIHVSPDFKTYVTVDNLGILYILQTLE
The experiment is described as follows: SEC. Particulars: remark: other sources report otherwise.

B1: caspase-9, P55211 1-416 (natural protein)
chain: MDEADRRLLRRCRLRLVEELQVDQLWDALLSRELFRPHMIEDIQRAGSGSRRDQARQLIIDLETRGSQALPLFISCLEDTGQDMLASFLRTNRQAAKLSKPTLENLTPVVLRPEIRKPEVLRPETPRPVDIGSGGFGDVGALESLRGNADLAYILSMEPCGHCLIINNVNFCRESGLRTRTGSNIDCEKLRRRFSSLHFMVEVKGDLTAKKMVLALLELAQQDHGALDCCVVVILSHGCQASHLQFPGAVYGTDGCPVSVEKIVNIFNGTSCPSLGGKPKLFFIQACGGEQKDHGFEVASTSPEDESPGSNPEPDATPFQEGLRTFDQLDAISSLPTPSDIFVSYSTFPGFVSWRDPKSGSWYVETLDDIFEQWAHSEDLQSLLLRVANAVSVKGIYKQMPGCFNFLRKKLFFKTS
In turn, B1 displayed a percent recruited to the high Mr complex of 50%.
